Measured values: article PMC4571342 (Molecular Biology of the Cell, 2015)

Target: the molecule itself
Assay: AUC

B1: C-terminal region (amino acids 104–278) of Lnp1 fused to maltose-binding protein (domain or fragment)
chain: FYNNNRLRKLAKLRAIHQKKLEKLKEETHYNATSSIIQRFSSGEDQNDDAMVLLDDELNAKYQELNNLKTELEKFKKESHVKGLKKEDSDAWFDKIISVLAGGNELDSTSSLSPFKKIICPQCHWKSNCYRLASKPIIFICPHCNHKIDEVKEREDAIEAKQPAQPSQSEKEKTK
stoichiometry N: 2
